The text below walks through data of the RNAGym collection of RNA variant scans (doi:10.1073/pnas.2313332121).

B1: TPR 5TU (parent)
chain: GGAUCUUCUCGAUCUAACAAAAAAGACAAAUCUGCCACAAAGCUUGAGAGCAUCUUCGGAUGCAGAGGCGGCAGCCUUCGGUGGCGCGAUAGCGCCAACGUUCUCAACUAUGACACGCAAAACGCGUGCUCCGUUGAAUGGAGUUUAUCAUG

This sample holds only a part of the variants without activity.

This series covers variants of B1. In words: polymerase ribozyme fitness, log enrichment relative to wild type (log ratio); higher = more active; in vitro selection for triplet polymerase activity. The procedure, abridged: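 Fitness measures genotype enrichment against wild-type enrichment on a logarithmic scale, with inverse-variance-weighted averaging of replicates. The logarithm is base 2, and genotypes were kept only with ≥10 input reads and ≥1 read per output in Illumina sequencing. The sequenced libraries came from one triplicate in vitro selection round, including frozen incubation at −7 °C, of PCR-built, transcribed mutant libraries of each subunit of a heterodimeric triplet polymerase ribozyme.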
For GGAUCUUCUCGAUCUAACAAAAAAGAGACAUCUGCCACAAAGCUUGAGAGAAUCUUCGGAUGCAGAGGCGGCUGCCUUCGGUAGCGCGAUAGCGCCUACGUUCUCAACUAUGACACGCAAAACGCGUGCUCCGUUGAAUGGAGUUUAUCAAG [C27G A29C C51A A73U G83A A97U U151A], the “polymerase ribozyme fitness (log ratio)” value is no more than -4.2.

Regarding GGAUCUUCUCGAUCUAACAAAAAAGAAAAAUCUGCCACAAAGCUUGAGAGCAUCUUCGGAAGCAGAGGCGGCAGCCUUCGGUGGCACGAUAGCGCCAACGUUCUCAACUAUGACACGCAAAACGCGUGCUCCGUUGAAUGGAGUUUAUCAUG [C27A U61A G86A], the “polymerase ribozyme fitness (log ratio)” value is no more than -4.2.

In the case of GGAUCUUCUCGAUCUAACAAAAAAGAGAAAUCUGCCGCAAAGCUUGAGAGCAUCUUCGGAUGCAGAGGCGGAAGCCUUCGGUGGCGCGAUAGCGCCAACGUUCUAAACUAUGACACGCAAAACGCGUGCUCCGUUGAAUGGAGUUUAUCAUG [C27G A37G C72A C105A], the “polymerase ribozyme fitness (log ratio)” value is -4.13. For GGAUCUUCUCGAUCUAACAAAAAAGAGAAAUCUGCCUCACAGCUUGAGAGCAUCUUCGGAUGCGGAGGCGGCAGCCUUCGAUGGCGCGAUAGCGGCAACGUUCUCAACUAUGACACGCAAAACGCGUGCUCCGUUGACUGGAGUUUAUCAUG [C27G A37U A40C A64G G81A C95G A138C], the “polymerase ribozyme fitness (log ratio)” value is -3.88. In the case of GGAUCUUCUCGAUCUAACAAAAAAGAGAAAUCUGCCAUGAAGCUUGAGAGCAUCUUCGGAUGCAGAGGCGGCCGCCUUCGGUGGCGCGAUAGCUCCAACGUUCUCAACUAUGACACGCAAAACGCGUGCUCCGUUGAAUGGAGUUCAUCAUU [C27G C38U A39G A73C G94U U146C G152U] it was no more than -4.2; in that of GGAUCUUCUCGAUCUAACAAAAAAGAGAGAUCUGCCACAAAGCUUGAGAGCAUCUUCGGAUGCAGAGGCGGCAGCCUUCGGUGGCGCGAUAGCGUCAACGUUCUCAACUAUGACACGCAAAACGCGUGCUCCGUUGAAUGGAGUUUAUCAUG [C27G A29G C95U], no more than -4.2; in that of GGAUCUUCUCGAUCUAACAAAAAAGAGAAAUCUGCCACAAAGCUUGAGAGCAUCUUCGGAUGCAGAGGCGGCAGCCUUCGGUGGCGCGAUAGCGCCAACGUUCUCAACUAUGACACGCAAAACGCGUGCUCCGUUGAAUGGAGUUUCUCAUG [C27G A147C], -4.05.

As for GGAUCUUCUCGAUCUAACAAAAAAGAGAAAUCUGCCACAAAGCUUGAGAGCAUCUUCGGAUGCAGAGGCGGCAGCAUUCGGUGGCGCGAUAGGGCCAACGUUCUCAACUAUGACACGCAAAACGCGUGCUCCGUUGAAUGGAGUUUAUCAUG [C27G C76A C93G], the “polymerase ribozyme fitness (log ratio)” value is no more than -4.2. In the case of GGAUCUUCUCGAUCUAACAAAAAAGAGAAAUCUGCCAAAAAGCUUGAGAGCAUUUUCGGAUGCAGAGGCGGCAGCCUUCGGUGGCGCGAUAUCGCCAACGUUCUCAACUAUGACACGCAAAACGCGUGCUCCGGUGAAUGGAGUUUAUCAUG [C27G C38A C54U G92U U134G] it was no more than -4.2; in that of GGAUCUUCUCGAUCUAACAAAAAAGAGAAAUCUGCCACAUAGCUUGAGAGCAUCUUCAGAUGCAGAGGCGGCCGCUUUCGGUGGCGCGAUAGCGGCAACGUUCUCAACUAUGACACGCAAAACGCGUGCUCCGUUGAAUGGAGUUUAUCAUG [C27G A40U G58A A73C C76U C95G], no more than -4.2; in that of GGAUCUUCUCGAUCUAACAAAAAAGAGAAAUCUGCCACAAAGCUUGAGAGUAUCUUCGGAUGCAGAGGCGGCAGCCUUCGGUGGCGCGAUAGCGCCAACGUUCUCAACUAUGACACGCAAAACGCGUGCUCCGUUGAAUGGAGUUUAUCAUG [C27G C51U], -3.97. In the case of GGAUCUUCUCGAUCUAACAAAAAAGAGAAAUCUGCCCCAAAGCUUGCGAGCAUCUUCGGAUGCAGAGGCGGCAGCCUUCGGUGGCGGGAUAGCGCCAACGUUCUCAACUAUGACCCGCAAAACGCGUGCUCCGUUGAAUGGAGUUUAUCAUG [C27G A37C A47C C87G A115C] it was no more than -4.2; in that of GGAUCUUCUCGAUCUAACAAAAAAGAGAAAUCUGCCCCAAAGCAAGAGAGCAUCUUUGGAUGCAGAGACGGCAGCCUUCGGUAGCGCGAUAGCGCCAACGUUCUCAACUAUGACACGCUUAACGCGUGCUCCGUUGAAUGGAGUUUGUCAUG [C27G A37C U44A U45A C57U G68A G83A A119U A120U A147G], no more than -4.2; in that of GGAUCUUCUCGAUCUAACAAAAAAGAGGAAUCUGCCACAAAGCUUGAGAGCAUCUUCGGAUGCAGAGGGGGCAGCCUUCGGUGGCGCGAUAGGGUCAACGUUCUCAACUAUGACACGCAAAACGCGUGCUCCGUUGAAUGGAGUUUAUCAUG [C27G A28G C69G C93G C95U], no more than -4.2.

Turning to GGAUCUUCUCGAUCUAACAAAAAAGAGAAAUCUGCUACAAAGCUUGAGAUCAUCUUCGGAUGCAGAGGCGGCUGCCUUCGGAGGCGCGAUAGCGUCAACGUUCUCAACUAUGACACGCAAAACGCGUGCUCCGUUGAAUGGAGUUUAUCAUG [C27G C36U G50U A73U U82A C95U], the “polymerase ribozyme fitness (log ratio)” value is no more than -4.2. For GGAUCUUCUCGAUCUAACAAAAAAGAGAAAUCUGCCACAAAGCUUGAGAGCAUUUUCGGAUGCAGAGGCGGCAGCGUUCGGUGGCGCGAUAGCGCCAACGUUCUCAACUAUGACACGCAAAACGCGUGCUCCGUUGAAUGGAGGUUAUCAUG [C27G C54U C76G U144G], the “polymerase ribozyme fitness (log ratio)” value is no more than -4.2. Next, GGAUCUUCUCGAUCUAACAAAAAAGAGAAAUCUGCCACAAAGCUUGAGAGCAUCUUCGGAUGCAGAGGCGGCAGCCUUCGGUGGCGCGAUAGCGCCAACGUUCUCAACUAUGACACGCAAAACGCGUGCUCCGUUGAAUGGAGUUUAUCAUG [C27G]: -3.12; GGAUCUUCUCGAUCUAACAAAAAAGAGAAAUCUGCCACAAAGCUUGAGAGCAUCUUCGGAUGCAGGGGCGGCAGCCUUCGGUGGCGUGAUAGCGCCAACGUUCUCAACAAUGUCACGCAAAACGCGUGCUCCGUUGAAUGGAGUUUAUCAUG [C27G A66G C87U U109A A113U]: no more than -4.2. In the case of GGAUCUUCUCGAUCUAACAAAAAAGAGAAAUCUGCCACAAAGCUUGAGAGCGUCUUCGGAUGCAGAGGCGGCAGCCUUCGGUGGCGCGAUAACGCCAACGUUCUCAACUAUGACACGCAAAACGCGUGCUCCGUUGAAUGGAGUUUAUCAUG [C27G A52G G92A] it was no more than -4.2.
